Measured values from patent publication US20260274955A1 (JANUX THERAPEUTICS, published 2026).

B1: Phage-727 (peptide)
peptide: YCDGHEAEYMWKCL
B2: Phage-729 (peptide)
peptide: YCDGHVVEYMSKCL
B3: Phage-721 (peptide)
peptide: YCQGHLPQYIEKCL
B4: Phage-358 (peptide)
peptide: YCEGHAPQYLNKCL
B5: Phage-434 (peptide)
peptide: YCDGHLQIYMHKCL
B6: Phage-730 (peptide)
peptide: YCAGHLPQYMHKCL
B7: Phage-422 (peptide)
peptide: YCDGHAIQYIGKCL
B8: Phage-720 (peptide)
peptide: YCEGHVAEYRAKCL
B9: Phage-441 (peptide)
peptide: YCDGHSWEYMEKCL
B10: Phage-540 (peptide)
peptide: YCDGHSEVYMSKCL
notes: on phage, pIII fusion
B11: Phage-357 (peptide)
peptide: YCDGHLPLYMHKCL
B12: Phage-356 (peptide)
peptide: YCDGHSAEYMEKCI
B13: Phage-427 (peptide)
peptide: YCQGHLPVYMEKCL
B14: Phage-440 (peptide)
peptide: YCEGHLPQYFMKCL
B15: Phage-418 (peptide)
peptide: YCDGHAEEYLWKCL
B16: Phage-508 (peptide)
peptide: YCSGHLPEYMWKCL
notes: on phage, pIII fusion
B17: Phage-437 (peptide)
peptide: YCDGHSLAYIAKCL
B18: Phage-304 (peptide)
peptide: YCEGHSEEYMSKCL
B19: Phage-397 (peptide)
peptide: YCDGHVQEYMQKCL
B20: Phage-429 (peptide)
peptide: YCEGHSVQYMQKCL
B21: Phage-414 (peptide)
peptide: YCEGHLQTYMAKCL
B22: Phage-726 (peptide)
peptide: YCVGHSEQYMAKCL
B23: Phage-359 (peptide)
peptide: YCDGHAREYMTKCL
B24: Phage-731 (peptide)
peptide: YCDGHIWPWIEKCL
B25: Phage-413 (peptide)
peptide: YCDGHLEEYMVKCM
B26: Phage-732 (peptide)
peptide: YCEGHSSLYLEKCL
B27: Phage-507 (peptide)
peptide: YCDGHSVKYMAKCL
notes: on phage, pIII fusion
B28: Phage-393 (peptide)
peptide: YCDGHVEPYLSKCL
B29: Phage-510 (peptide)
peptide: YCDGHAQEYMVKCL
notes: on phage, pIII fusion
B30: Phage-303 (peptide)
peptide: YCDGHLDIYLAKCL
B31: Phage-432 (peptide)
peptide: YCDGHLVEYRGKCL
B32: Phage-511 (peptide)
peptide: YCAGHSPEYMQKCL
notes: on phage, pIII fusion
B33: Phage-420 (peptide)
peptide: YCDGHSGVYMWKCL
B34: Phage-438 (peptide)
peptide: YCAGHTQEYMYKCL
B35: Phage-423 (peptide)
peptide: YCDGHAAEFMMKCL
B36: Phage-360 (peptide)
peptide: YCDGHTEEYMDKCL
B37: Phage-425 (peptide)
peptide: YCEGHSEMYMKKCL
B38: Phage-416 (peptide)
peptide: YCDGHLPEYIFKCL
B39: Phage-405 (peptide)
peptide: YCDGHSLQYMDKCL
B40: Phage-300 (peptide)
peptide: YCEGHLAQYMWKCL
B41: Phage-396 (peptide)
peptide: YCEGHLAQYMNKCL
B42: Phage-428 (peptide)
peptide: YCDGHAAEYMDKCL
B43: Phage-426 (peptide)
peptide: YCDGHLQIYLWKCL
B44: Phage-402 (peptide)
peptide: YCDGHHIEYLAKCL
B45: Phage-421 (peptide)
peptide: YCDGHTQAYIQKCL
B46: Phage-436 (peptide)
peptide: YCDGHLPEYFLKCL
B47: Phage-415 (peptide)
peptide: YCAGHSQEHIQKCL
B48: Phage-394 (peptide)
peptide: YCDGHKPQYMEKCL
B49: Phage-398 (peptide)
peptide: YCHGHLQEYMAKCL
B50: Phage-431 (peptide)
peptide: YCDGHSREYMVKCL
B51: Phage-361 (peptide)
peptide: YCDGHSSMYMAKCL
B52: Phage-390 (peptide)
peptide: YCDGHSPQYMQKCL
B53: Phage-723 (peptide)
peptide: YCDGHEQQYMEKCL
B54: Phage-724 (peptide)
peptide: YCDGHLQMYMMKCL
B55: Phage-302 (peptide)
peptide: YCEGHSSEYMEKCL
B56: Phage-301 (peptide)
peptide: YCEGHLAVYMQKCL
B57: Phage-400 (peptide)
peptide: YCDGHAPVYMAKCL
B58: Phage-725 (peptide)
peptide: YCEGHLYEYMWKCL
B59: Phage-409 (peptide)
peptide: YCEGHAIEYLAKCL
B60: Phage-408 (peptide)
peptide: YCDGHAEKYMQKCL
B61: Phage-363 (peptide)
peptide: YCEGHSAEFMTKCL
B62: Phage-582 (peptide)
peptide: YCDGHLLEYMSKCL
notes: on phage, pIII fusion
B63: Phage-722 (peptide)
peptide: YCEGHAAAYMGKCL
B64: Phage-728 (peptide)
peptide: YCEGHAEQYMKKCL
B65: Phage-395 (peptide)
peptide: YCDGHIGEYMVKCL
B66: Phage-406 (peptide)
peptide: YCDGHYPEYMSKCL

Columns and labels:
[1] = molecular target: T1, Anti-CD28 Fab (SEQ ID NOs: 202, 203); assay: phage ELISA, Fab on plate;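 further: crude clonal phage supernatants added to wells pretreated with blocking buffer with or without CD28 antigen, then bound phage read out via HRP-linked anti-M13 antibody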
T1 construct: biotinylated and captured on neutravidin coated plates in the phage ELISA

[2] = molecular target: T2, anti-CD28 Fab (SEQ ID NOs: 202, 203); assay: phage binding ELISA; biotinylated Fab on neutravidin plate;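 further: clonal phage supernatants added to Fab wells pretreated with CD28 antigen or with blocking buffer only, bound phage read out via HRP-linked anti-M13 antibody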
T2 construct: biotinylated and captured on neutravidin coated plates in the phage ELISA
T2 sequence (VH, as listed by the source, chain 1 of 2): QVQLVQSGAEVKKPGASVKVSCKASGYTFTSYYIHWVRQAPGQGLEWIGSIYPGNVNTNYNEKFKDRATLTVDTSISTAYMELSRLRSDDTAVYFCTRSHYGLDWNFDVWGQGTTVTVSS
T2 sequence (VL, as listed by the source, chain 2 of 2): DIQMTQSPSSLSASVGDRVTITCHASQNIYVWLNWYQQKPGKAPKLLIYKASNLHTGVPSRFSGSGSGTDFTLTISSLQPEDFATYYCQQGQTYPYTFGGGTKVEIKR
Protocol: (§1) Clonal phage were harvested as crude supernatants and screened via standard ELISAs. […] Prior to the addition of clonal phage, wells were incubated with blocking buffer and CD28 antigen or blocking buffer alone. Without washing or aspirating, clonal phage supernatants were then added to the wells and incubated for a short time. Wells were then washed followed by detection of bound phage using a horse radish conjugated anti-M13 antibody.

[3] = molecular target: T3, anti-CD28 Fab (SEQ ID NOs: 202, 203); assay: phage ELISA on captured Fab;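 further: ELISA with clonal phage supernatants added to wells preincubated with CD28 antigen or with blocking buffer only, bound phage detected by HRP-conjugated anti-M13 antibody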
T3 construct: biotinylated and captured on neutravidin coated plates in the phage ELISA
T3 sequence (VH, as listed by the source, chain 1 of 2): as the sequence (VH, as listed by the source, chain 1 of 2) above
T3 sequence (VL, as listed by the source, chain 2 of 2): as the sequence (VL, as listed by the source, chain 2 of 2) above
Protocol: as §1

T1 sequence (VH, as listed by the source, chain 1 of 2): as the sequence (VH, as listed by the source, chain 1 of 2) above
T1 sequence (VL, as listed by the source, chain 2 of 2): as the sequence (VL, as listed by the source, chain 2 of 2) above

Binder	Anti-CD28 Fab (SEQ ID NOs: 202, 203) signal [2]	other results
B1		Anti-CD28 Fab (SEQ ID NOs: 202, 203) signal [1]: 1.13
B2		Anti-CD28 Fab (SEQ ID NOs: 202, 203) signal [1]: 1.12
B3		Anti-CD28 Fab (SEQ ID NOs: 202, 203) signal [1]: 1.14
B4	1.82	
B5	1.71	
B6		Anti-CD28 Fab (SEQ ID NOs: 202, 203) signal [1]: 1.11
B7	1.72	
B8		Anti-CD28 Fab (SEQ ID NOs: 202, 203) signal [1]: 1.15
B9	1.7	
B10		Anti-CD28 Fab (SEQ ID NOs: 202, 203) signal [3]: 1.55
B11	1.82	
B12	1.83	
B13	1.72	
B14	1.7	
B15	1.73	
B16		Anti-CD28 Fab (SEQ ID NOs: 202, 203) signal [3]: 1.61
B17	1.7	
B18	1.91	
B19	1.76	
B20	1.71	
B21	1.73	
B22		Anti-CD28 Fab (SEQ ID NOs: 202, 203) signal [1]: 1.13

Binder	Anti-CD28 Fab (SEQ ID NOs: 202, 203) signal [2]	other results
B23	1.82	
B24		Anti-CD28 Fab (SEQ ID NOs: 202, 203) signal [1]: 1.11
B25	1.73	
B26		Anti-CD28 Fab (SEQ ID NOs: 202, 203) signal [1]: 1.11
B27		Anti-CD28 Fab (SEQ ID NOs: 202, 203) signal [3]: 1.61
B28	1.76	
B29		Anti-CD28 Fab (SEQ ID NOs: 202, 203) signal [3]: 1.61
B30	1.91	
B31	1.71	
B32		Anti-CD28 Fab (SEQ ID NOs: 202, 203) signal [3]: 1.6
B33	1.73	
B34	1.7	
B35	1.72	
B36	1.82	
B37	1.72	
B38	1.73	
B39	1.75	
B40	1.91	
B41	1.76	
B42	1.72	
B43	1.72	
B44	1.75	

Binder	Anti-CD28 Fab (SEQ ID NOs: 202, 203) signal [2]	other results
B45	1.73	
B46	1.71	
B47	1.73	
B48	1.76	
B49	1.76	
B50	1.71	
B51	1.82	
B52	1.76	
B53		Anti-CD28 Fab (SEQ ID NOs: 202, 203) signal [1]: 1.14
B54		Anti-CD28 Fab (SEQ ID NOs: 202, 203) signal [1]: 1.14
B55	1.91	
B56	1.91	
B57	1.75	
B58		Anti-CD28 Fab (SEQ ID NOs: 202, 203) signal [1]: 1.13
B59	1.74	
B60	1.74	
B61	1.81	
B62		Anti-CD28 Fab (SEQ ID NOs: 202, 203) signal [3]: 1.46
B63		Anti-CD28 Fab (SEQ ID NOs: 202, 203) signal [1]: 1.14
B64		Anti-CD28 Fab (SEQ ID NOs: 202, 203) signal [1]: 1.12
B65	1.76	
B66	1.75	
